Results: the supplement of paper PMC12458215
± gives the uncertainty stated by the source.

Tested on: HEK293T
Assay: plasma membrane surface immunostaining intensity (anti-HA, deep receptor scanning) (arbitrary fluorescence units); higher = higher plasma membrane expression

Sequence | plasma membrane surface immunostaining intensity (GPCR class: A) | plasma membrane surface immunostaining intensity (GPCR class: A (Olfactory)) | also measured
MGTCDIVTEANISSGPESNTTGITAFSMPSWQLALWATAYLALVLVAVTGNAIVIWIILAHRRMRTVTNYFIVNLALADLCMAAFNAAFNFVYASHNIWYFGRAFCYFQNLFPITAMFVSIYSMTAIAADRYMAIVHPFQPRLSAPSTKAVIAGIWLVALALASPQCFYSTVTMDQGATKCVVAWPEDSGGKTLLLYHLVVIALIYFLPLAVMFVAYSVIGLTLWRRAVPGHQAHGANLRHLQAMKKFVKTMVLVVLTFAICWLPYHLYFILGSFQEDIYCHKFIQQVYLALFWLAMSSTMYNPIIYCCLNHRFRSGFRLAFRCCPWVTPTKEDKLELTPTTSLSTRVNRCHTKETLFMAGDTAPSEATSGEAGRPQDGSGLWFGYGLLAPTKTHVEI [TACR2] | 474 ± 41 | – | –
MGTDNQTWVSEFILLGLSSDWDTRVSLFVLFLVMYVVTVLGNCLIVLLIRLDSRLHTPMYFFLTNLSLVDVSYATSVVPQLLAHFLAEHKAIPFQSCAAQLFFSLALGGIEFVLLAVMAYDRYVAVCDALRYSAIMHGGLCARLAITSWVSGFISSPVQTAITFQLPMCRNKFIDHISCELLAVVRLACVDTSSNEVTIMVSSIVLLMTPFCLVLLSYIQIISTILKIQSREGRKKAFHTCASHLTVVALCYGVAIFTYIQPHSSPSVLQEKLFSVFYAILTPMLNPMIYSLRNKEVKGAWQKLLWKFSGLTSKLAT [OR2F1] | – | 181 ± 74 | –
MGTEATEQVSWGHYSGDEEDAYSAEPLPELCYKADVQAFSRAFQPSVSLTVAALGLAGNGLVLATHLAARRAARSPTSAHLLQLALADLLLALTLPFAAAGALQGWSLGSATCRTISGLYSASFHAGFLFLACISADRYVAIARALPAGPRPSTPGRAHLVSVIVWLLSLLLALPALLFSQDGQREGQRRCRLIFPEGLTQTVKGASAVAQVALGFALPLGVMVACYALLGRTLLAARGPERRRALRVVVALVAAFVVLQLPYSLALLLDTADLLAARERSCPASKRKDVALLVTSGLALARCGLNPVLYAFLGLRFRQDLRRLLRGGSCPSGPQPRRGCPRRPRLSSCSAPTETHSLSWDN [CCR10] | 424 ± 20 | – | –
MINSTSTQPPDESCSQNLLITQQIIPVLYCMVFIAGILLNGVSGWIFFYVPSSKSFIIYLKNIVIADFVMSLTFPFKILGDSGLGPWQLNVFVCRVSAVLFYVNMYVSIVFFGLISFDRYYKIVKPLWTSFIQSVSYSKLLSVIVWMLMLLLAVPNIILTNQSVREVTQIKCIELKSELGRKWHKASNYIFVAIFWIVFLLLIVFYTAITKKIFKSHLKSSRNSTSVKKKSSRNIFSIVFVFFVCFVPYHIARIPYTKSQTEAHYSCQSKEILRYMKEFTLLLSAANVCLDPIIYFFLCQPFREILCKKLHIPLKAQNDLDISRIKRGNTTLESTDTL [P2RY14] | 5190 ± 71 | – | –
MITLNNQDQPVPFNSSHPDEYKIAALVFYSCIFIIGLFVNITALWVFSCTTKKRTTVTIYMMNVALVDLIFIMTLPFRMFYYAKDEWPFGEYFCQILGALTVFYPSIALWLLAFISADRYMAIVQPKYAKELKNTCKAVLACVGVWIMTLTTTTPLLLLYKDPDKDSTPATCLKISDIIYLKAVNVLNLTRLTFFFLIPLFIMIGCYLVIIHNLLHGRTSKLKPKVKEKSIRIIITLLVQVLVCFMPFHICFAFLMLGTGENSYNPWGAFTTFLMNLSTCLDVILYYIVSKQFQARVISVMLYRNYLRSMRRKSFRSGSLRSLSNINSEML [GPR18] | 360 ± 120 | – | –
MKAGNFSDTPEFFLLGLSGDPELQPILFMLFLSMYLATMLGNLLIILAVNSDSHLHTPMYFLLSILSLVDICFTSTTMPKMLVNIQAQAQSINYTGCLTQICFVLVFVGLENGILVMMAYDRFVAICHPLRYNVIMNPKLCGLLLLLSFIVSVLDALLHTLMVLQLTFCIDLEIPHFFCELAHILKLACSDVLINNILVYLVTSLLGVVPLSGIIFSYTRIVSSVMKIPSAGGKYKAFSICGSHLIVVSLFYGTGFGVYLSSGATHSSRKGAIASVMYTVVTPMLNPLIYSLRNKDMLKALRKLISRIPSFH [OR7G3] | – | 111 ± 21 | –
MKALIFAAAGLLLLLPTFCQSGMENDTNNLAKPTLPIKTFRGAPPNSFEEFPFSALEGWTGATITVKIKCPEESASHLHVKNATMGYLTSSLSTKLIPAIYLLVFVVGVPANAVTLWMLFFRTRSICTTVFYTNLAIADFLFCVTLPFKIAYHLNGNNWVFGEVLCRATTVIFYGNMYCSILLLACISINRYLAIVHPFTYRGLPKHTYALVTCGLVWATVFLYMLPFFILKQEYYLVQPDITTCHDVHNTCESSSPFQLYYFISLAFFGFLIPFVLIIYCYAAIIRTLNAYDHRWLWYVKASLLILVIFTICFAPSNIILIIHHANYYYNNTDGLYFIYLIALCLGSLNSCLDPFLYFLMSKTRNHSTAYLTK [F2RL2] | 221 ± 21 | – | –
MKANYSAEERFLLLGFSDWPSLQPVLFALVLLCYLLTLTGNSALVLLAVRDPRLHTPMYYFLCHLALVDAGFTTSVVPPLLANLRGPALWLPRSHCTAQLCASLALGSAECVLLAVMALDRAAAVCRPLRYAGLVSPRLCRTLASASWLSGLTNSVAQTALLAERPLCAPRLLDHFICELPALLKLACGGDGDTTENQMFAARVVILLLPFAVILASYGAVARAVCCMRFSGGRRRAVGTCGSHLTAVCLFYGSAIYTYLQPAQRYNQARGKFVSLFYTVVTPALNPLIYTLRNKKVKGAARRLLRSLGRGQAGQ [OR2I1P] | – | 132 ± 5.4 | –
MKETRGYGGDAPFCTRLNHSYTGMWAPERSAEARGNLTRPPGSGEDCGSVSVAFPITMLLTGFVGNALAMLLVSRSYRRRESKRKKSFLLCIGWLALTDLVGQLLTTPVVIVVYLSKQRWEHIDPSGRLCTFFGLTMTVFGLSSLFIASAMAVERALAIRAPHWYASHMKTRATRAVLLGVWLAVLAFALLPVLGVGQYTVQWPGTWCFISTGRGGNGTSSSHNWGNLFFASAFAFLGLLALTVTFSCNLATIKALVSRCRAKATASQSSAQWGRITTETAIQLMGIMCVLSVCWSPLLIMMLKMIFNQTSVEHCKTHTEKQKECNFFLIAVRLASLNQILDPWVYLLLRKILLRKFCQIRYHTNNYASSSTSLPCQCSSTLMWSDHLER [PTGER3] | 684 ± 110 | – | –
MKIANNTVVTEFILLGLTQSQDIQLLVFVLILIFYLIILPGNFLIIFTIRSDPGLTAPLYLFLGNLAFLDASYSFIVAPRMLVDFLSEKKVISYRGCITQLFFLHFLGGGEGLLLVVMAFDRYIAICRPLHCSTVMNPRACYAMMLALWLGGFVHSIIQVVLILRLPFCGPNQLDNFFCDVRQVIKLACTDMFVVELLMVFNSGLMTLLCFLGLLASYAVILCHVRRAASEGKNKAMSTCTTRVIIILLMFGPAIFIYICPFRALPADKMVSLFHTVIFPLMNPMIYTLRNQEVKTSMKRLLSRHVVCQVDFIIRN [OR4N4C] | – | 323 ± 130 | –
MKIANNTVVTEFILLGLTQSQDIQLLVFVLILIFYLIILPGNFLIIFTIRSDPGLTAPLYLFLGNLAFLDASYSFIVAPRMLVDFLSEKKVISYRGCITQLFFLHFLGGGEGLLLVVMAFDRYIAICRPLHCSTVMNPRACYAMMLALWLGGFVHSIIQVVLILRLPFCGPNQLDNFFCDVRQVIKLACTDMFVVELLMVFNSGLMTLLCFLGLLASYAVILCHVRRAASEGKNKAMSTCTTRVIIILLMFGPAIFIYMCPFRALPADKMVSLFHTVIFPLMNPMIYTLRNQEVKTSMKRLLSRHVVCQVDFIIRN [OR4N4] | – | 255 ± 110 | –
MKKENQSFNLDFILLGVTSQQEQNNVFFVIFLCIYPITLTGNLLIILAICADIRLHNPMYFLLANLSLVDIIFSSVTIPKVLANHLLGSKFISFGGCLMQMYFMIALAKADSYTLAAMAYDRAVAISCPLHYTTIMSPRSCILLIAGSWVIGNTSALPHTLLTASLSFCGNQEVANFYCDIMPLLKLSCSDVHFNVKMMYLGVGVFSLPLLCIIVSYVQVFSTVFQVPSTKSLFKAFCTCGSHLTVVFLYYGTTMGMYFRPLTSYSPKDAVITVMYVAVTPALNPFIYSLRNWDMKAALQKLFSKRISS [OR1A2] | – | 207 ± 46 | –
MKLGSSRAGPGRGSAGLLPGVHELPMGIPAPWGTSPLSFHRKCSLWAPGRPFLTLVLLVSIKQVTGSLLEETTRKWAQYKQACLRDLLKEPSGIFCNGTFDQYVCWPHSSPGNVSVPCPSYLPWWSEESSGRAYRHCLAQGTWQTIENATDIWQDDSECSENHSFKQNVDRYALLSTLQLMYTVGYSFSLISLFLALTLLLFLRKLHCTRNYIHMNLFASFILRTLAVLVKDVVFYNSYSKRPDNENGWMSYLSEMSTSCRSVQVLLHYFVGANYLWLLVEGLYLHTLLEPTVLPERRLWPRYLLLGWAFPVLFVVPWGFARAHLENTGCWTTNGNKKIWWIIRGPMMLCVTVNFFIFLKILKLLISKLKAHQMCFRDYKYRLAKSTLVLIPLLGVHEILFSFITDDQVEGFAKLIRLFIQLTLSSFHGFLVALQYGFANGEVKAELRKYWVRFLLARHSGCRACVLGKDFRFLGKCPKKLSEGDGAEKLRKLQPSLNSGRLLHLAMRGLGELGAQPQQDHARWPRGSSLSECSEGDVTMANTMEEILEESEI [GLP2R] | – | – | plasma membrane surface immunostaining intensity (GPCR class: B): 121 ± 21
MKLWMESHLIVPETRPSPRMMSNQTLVTEFILQGFSEHPEYRVFLFSCFLFLYSGALTGNVLITLAITFNPGLHAPMYFFLLNLATMDIICTSSIMPKALASLVSEESSISYGGCMAQLYFLTWAASSELLLLTVMAYDRYAAICHPLHYSSMMSKVFCSGLATAVWLLCAVNTAIHTGLMLRLDFCGPNVIIHFFCEVPPLLLLSCSSTYVNGVMIVLADAFYGIVNFLMTIASYGFIVSSILKVKTAWGRQKAFSTCSSHLTVVCMYYTAVFYAYISPVSGYSAGKSKLAGLLYTVLSPTLNPLIYTLRNKEVKAALRKLFPFFRN [OR13A1] | – | 120 ± 26 | –
MKMKSQATMICCLVFFLSTECSHYRSKIHLKAGDKLQSPEGKPKTGRIQEKCEGPCISSSNCSQPCAKDFHGEIGFTCNQKKWQKSAETCTSLSVEKLFKDSTGASRLSVAAPSIPLHILDFRAPETIESVAQGIRKNCPFDYACITDMVKSSETTSGNIAFIVELLKNISTDLSDNVTREKMKSYSEVANHILDTAAISNWAFIPNKNASSDLLQSVNLFARQLHIHNNSENIVNELFIQTKGFHINHNTSEKSLNFSMSMNNTTEDILGMVQIPRQELRKLWPNASQAISIAFPTLGAILREAHLQNVSLPRQVNGLVLSVVLPERLQEIILTFEKINKTRNARAQCVGWHSKKRRWDEKACQMMLDIRNEVKCRCNYTSVVMSFSILMSSKSMTDKVLDYITCIGLSVSILSLVLCLIIEATVWSRVVVTEISYMRHVCIVNIAVSLLTANVWFIIGSHFNIKAQDYNMCVAVTFFSHFFYLSLFFWMLFKALLIIYGILVIFRRMMKSRMMVIGFAIGYGCPLIIAVTTVAITEPEKGYMRPEACWLNWDNTKALLAFAIPAFVIVAVNLIVVLVVAVNTQRPSIGSSKSQDVVIIMRISKNVAILTPLLGLTWGFGIATLIEGTSLTFHIIFALLNAFQGFFILLFGTIMDHKIRDALRMRMSSLKGKSRAAENASLGPTNGSKLMNRQG [ADGRF4] | – | – | plasma membrane surface immunostaining intensity (GPCR class: B): 386 ± 78
